{"source": "the Human Domainome abundance scans (Beltran et al. 2025)", "parents": {"B1": {"name": "TGF-beta-activated kinase 1 and MAP3K7-binding protein 3, residues 12 to 50; numbered along this chain, Q8N5C8 (parent)", "chain": "VLHDLRQRFPEIPEGVVSQCMLQNNNNLEACCRALSQES"}}, "note": "± gives the uncertainty stated by the source."}
{"variants_of": "B1", "experiment": "abundance fitness (aPCA) (normalised: wild type 0, dead -1); higher = more abundant; growth selection in yeast, the domain comes from the species named", "settings": "Homo sapiens"}
{"variant": "VLHDARQRFPEIPEGVVSQCMLQNNNNLEACCRALSQES", "abundance fitness": "-0.905 ± 0.094"}
{"variant": "VLHDIRQRFPEIPEGVVSQCMLQNNNNLEACCRALSQES", "abundance fitness": "0.286 ± 0.22"}
{"variant": "VLHDHRQRFPEIPEGVVSQCMLQNNNNLEACCRALSQES", "abundance fitness": "-0.4 ± 0.34"}
{"variant": "VLHDDRQRFPEIPEGVVSQCMLQNNNNLEACCRALSQES", "abundance fitness": "-0.191 ± 0.062"}
{"variant": "VLHDERQRFPEIPEGVVSQCMLQNNNNLEACCRALSQES", "abundance fitness": "-0.362 ± 0.073"}
{"variant": "VSHDLRQRFPEIPEGVVSQCMLQNNNNLEACCRALSQES", "abundance fitness": "-0.221 ± 0.12"}
{"variant": "VTHDLRQRFPEIPEGVVSQCMLQNNNNLEACCRALSQES", "abundance fitness": "-0.194 ± 0.14"}
{"variant": "VFHDLRQRFPEIPEGVVSQCMLQNNNNLEACCRALSQES", "abundance fitness": "0.211 ± 0.12"}
{"variant": "VWHDLRQRFPEIPEGVVSQCMLQNNNNLEACCRALSQES", "abundance fitness": "-0.134 ± 0.049"}
{"variant": "VAHDLRQRFPEIPEGVVSQCMLQNNNNLEACCRALSQES", "abundance fitness": "-0.187 ± 0.058"}
{"variant": "VGHDLRQRFPEIPEGVVSQCMLQNNNNLEACCRALSQES", "abundance fitness": "-0.583 ± 0.069"}
{"variant": "VRHDLRQRFPEIPEGVVSQCMLQNNNNLEACCRALSQES", "abundance fitness": "-0.464 ± 0.047"}
{"variant": "VIHDLRQRFPEIPEGVVSQCMLQNNNNLEACCRALSQES", "abundance fitness": "-0.049 ± 0.07"}
{"variant": "VPHDLRQRFPEIPEGVVSQCMLQNNNNLEACCRALSQES", "abundance fitness": "-0.246 ± 0.27"}
{"variant": "VEHDLRQRFPEIPEGVVSQCMLQNNNNLEACCRALSQES", "abundance fitness": "-0.588 ± 0.15"}
{"variant": "VNHDLRQRFPEIPEGVVSQCMLQNNNNLEACCRALSQES", "abundance fitness": "-0.058 ± 0.1"}
{"variant": "VHHDLRQRFPEIPEGVVSQCMLQNNNNLEACCRALSQES", "abundance fitness": "0.077 ± 0.1"}
{"variant": "VQHDLRQRFPEIPEGVVSQCMLQNNNNLEACCRALSQES", "abundance fitness": "-0.276 ± 0.076"}
{"variant": "VVHDLRQRFPEIPEGVVSQCMLQNNNNLEACCRALSQES", "abundance fitness": "-0.531 ± 0.065"}
{"variant": "ELHDLRQRFPEIPEGVVSQCMLQNNNNLEACCRALSQES", "abundance fitness": "0.043 ± 0.055"}
{"variant": "LLHDLRQRFPEIPEGVVSQCMLQNNNNLEACCRALSQES", "abundance fitness": "0.311 ± 0.09"}
{"variant": "QLHDLRQRFPEIPEGVVSQCMLQNNNNLEACCRALSQES", "abundance fitness": "0.235 ± 0.29"}
{"variant": "ALHDLRQRFPEIPEGVVSQCMLQNNNNLEACCRALSQES", "abundance fitness": "-0.38 ± 0.085"}
{"variant": "RLHDLRQRFPEIPEGVVSQCMLQNNNNLEACCRALSQES", "abundance fitness": "-0.291 ± 0.4"}
{"variant": "SLHDLRQRFPEIPEGVVSQCMLQNNNNLEACCRALSQES", "abundance fitness": "-0.048 ± 0.12"}
{"variant": "GLHDLRQRFPEIPEGVVSQCMLQNNNNLEACCRALSQES", "abundance fitness": "-0.193 ± 0.056"}
{"variant": "MLHDLRQRFPEIPEGVVSQCMLQNNNNLEACCRALSQES", "abundance fitness": "0.19 ± 0.065"}
{"variant": "DLHDLRQRFPEIPEGVVSQCMLQNNNNLEACCRALSQES", "abundance fitness": "0.022 ± 0.13"}
{"variant": "FLHDLRQRFPEIPEGVVSQCMLQNNNNLEACCRALSQES", "abundance fitness": "-0.228 ± 0.13"}
{"variant": "NLHDLRQRFPEIPEGVVSQCMLQNNNNLEACCRALSQES", "abundance fitness": "0.252 ± 0.17"}
{"variant": "WLHDLRQRFPEIPEGVVSQCMLQNNNNLEACCRALSQES", "abundance fitness": "-0.361 ± 0.14"}
{"variant": "VLHWLRQRFPEIPEGVVSQCMLQNNNNLEACCRALSQES", "abundance fitness": "0.017 ± 0.049"}
{"variant": "VLHALRQRFPEIPEGVVSQCMLQNNNNLEACCRALSQES", "abundance fitness": "0.013 ± 0.051"}
{"variant": "VLHVLRQRFPEIPEGVVSQCMLQNNNNLEACCRALSQES", "abundance fitness": "0.127 ± 0.043"}
{"variant": "VLHRLRQRFPEIPEGVVSQCMLQNNNNLEACCRALSQES", "abundance fitness": "-0.112 ± 0.038"}
{"variant": "VLHMLRQRFPEIPEGVVSQCMLQNNNNLEACCRALSQES", "abundance fitness": "-0.039 ± 0.14"}
{"variant": "VLHCLRQRFPEIPEGVVSQCMLQNNNNLEACCRALSQES", "abundance fitness": "-0.053 ± 0.054"}
{"variant": "VLHFLRQRFPEIPEGVVSQCMLQNNNNLEACCRALSQES", "abundance fitness": "0.164 ± 0.097"}
{"variant": "VLHELRQRFPEIPEGVVSQCMLQNNNNLEACCRALSQES", "abundance fitness": "0.248 ± 0.045"}
{"variant": "VLHSLRQRFPEIPEGVVSQCMLQNNNNLEACCRALSQES", "abundance fitness": "-0.118 ± 0.042"}
{"variant": "VLHKLRQRFPEIPEGVVSQCMLQNNNNLEACCRALSQES", "abundance fitness": "0.109 ± 0.049"}
{"variant": "VLHNLRQRFPEIPEGVVSQCMLQNNNNLEACCRALSQES", "abundance fitness": "-0.075 ± 0.068"}
{"variant": "VLHYLRQRFPEIPEGVVSQCMLQNNNNLEACCRALSQES", "abundance fitness": "-0.054 ± 0.18"}
{"variant": "VLHLLRQRFPEIPEGVVSQCMLQNNNNLEACCRALSQES", "abundance fitness": "0.116 ± 0.045"}
{"variant": "VLHGLRQRFPEIPEGVVSQCMLQNNNNLEACCRALSQES", "abundance fitness": "-0.676 ± 0.055"}
{"variant": "VLHQLRQRFPEIPEGVVSQCMLQNNNNLEACCRALSQES", "abundance fitness": "0.167 ± 0.052"}
{"variant": "VLHTLRQRFPEIPEGVVSQCMLQNNNNLEACCRALSQES", "abundance fitness": "0.02 ± 0.048"}
{"variant": "VLHPLRQRFPEIPEGVVSQCMLQNNNNLEACCRALSQES", "abundance fitness": "-0.838 ± 0.14"}
{"variant": "VLCDLRQRFPEIPEGVVSQCMLQNNNNLEACCRALSQES", "abundance fitness": "-0.191 ± 0.083"}
{"variant": "VLDDLRQRFPEIPEGVVSQCMLQNNNNLEACCRALSQES", "abundance fitness": "-0.066 ± 0.094"}
{"variant": "VLSDLRQRFPEIPEGVVSQCMLQNNNNLEACCRALSQES", "abundance fitness": "0.066 ± 0.059"}
{"variant": "VLNDLRQRFPEIPEGVVSQCMLQNNNNLEACCRALSQES", "abundance fitness": "-0.14 ± 0.24"}
{"variant": "VLEDLRQRFPEIPEGVVSQCMLQNNNNLEACCRALSQES", "abundance fitness": "0.201 ± 0.046"}
{"variant": "VLQDLRQRFPEIPEGVVSQCMLQNNNNLEACCRALSQES", "abundance fitness": "0.266 ± 0.047"}
{"variant": "VLTDLRQRFPEIPEGVVSQCMLQNNNNLEACCRALSQES", "abundance fitness": "-0.019 ± 0.045"}
{"variant": "VLFDLRQRFPEIPEGVVSQCMLQNNNNLEACCRALSQES", "abundance fitness": "-0.342 ± 0.13"}
{"variant": "VLVDLRQRFPEIPEGVVSQCMLQNNNNLEACCRALSQES", "abundance fitness": "-0.331 ± 0.049"}
{"variant": "VLIDLRQRFPEIPEGVVSQCMLQNNNNLEACCRALSQES", "abundance fitness": "-0.096 ± 0.18"}
{"variant": "VLPDLRQRFPEIPEGVVSQCMLQNNNNLEACCRALSQES", "abundance fitness": "-0.483 ± 0.061"}
{"variant": "VLMDLRQRFPEIPEGVVSQCMLQNNNNLEACCRALSQES", "abundance fitness": "-0.023 ± 0.059"}
{"variant": "VLRDLRQRFPEIPEGVVSQCMLQNNNNLEACCRALSQES", "abundance fitness": "0.088 ± 0.045"}
{"variant": "VLKDLRQRFPEIPEGVVSQCMLQNNNNLEACCRALSQES", "abundance fitness": "0.09 ± 0.06"}
{"variant": "VLGDLRQRFPEIPEGVVSQCMLQNNNNLEACCRALSQES", "abundance fitness": "-0.078 ± 0.043"}
{"variant": "VLYDLRQRFPEIPEGVVSQCMLQNNNNLEACCRALSQES", "abundance fitness": "-0.391 ± 0.18"}
